Assay results as given in the RNAGym collection of RNA variant scans (doi:10.1073/pnas.2313332121).

B1: TPR t1 (parent)
chain: GACCAAUCUGCCCUCAGAGCUCGAGAACAUCUUCGGAUGCAGAGGAGGCAGGCUUCGGUGGCGCGAUAGCGCCAACGUCCUCAACCUCCAAUGCAUCCCACCACAUGAUGAUGCCUGAAGAGCCUUGGUUUUUUG

Variants of: B1
Experiment: polymerase ribozyme fitness, log enrichment relative to wild type (log ratio); higher = more active; in vitro selection for triplet polymerase activity
In short: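 Mutant libraries were PCR-built and transcribed for each subunit of a heterodimeric triplet polymerase ribozyme and selected for one round in triplicate at −7 °C, frozen, before gel excision of extended constructs and streptavidin-bead capture. Input and output libraries were Illumina-sequenced, keeping genotypes with ≥10 input reads and ≥1 read per output. Fitness is a logarithmic ratio of genotype to wild-type enrichment, in base 2, using inverse-variance-weighted replicate averages.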

| Variant | polymerase ribozyme fitness (log ratio) |
| --- | --- |
| G17U G44C G57U U112C G135A | -1.76 |
| A16G U109C | -5.19 |
| G17A C73U | -2.84 |
| A16U C53G G93C C123A | -1.64 |
| A16U C70G C79U C94U | -2.44 |
| A16U A46C C94U G120C | -0.971 |
| A16U A50G G60U C97G U125A | -7.95 |
| A16U G23A G60A A111G G122U | -7.12 |
| G17A G69U A118G | 0.157 |
| G17C U78C C89A U96A | -4.94 |
| G17A C22A | -5.66 |
| G17A C98U | -5.09 |
| G17U C72G | -2.35 |
| G17A C34U C98U C124A | -5.98 |
| A16G C40U A50U U55G C70U C79U U92C U112A | -7.45 |
| A16U A37U | -2.13 |
| A16U A37G | -2.1 |
| G17U C62U C73U C101A U130C | -3.73 |
| G17C C56U C89U | -3.95 |
| A16U A105C G120U | -3.61 |
| G17U C20A G61U U87A | -4.07 |
| G17A A37U C115U | 0.842 |
| G17U C49A U126C | -3.28 |
| A16G A37G | -1.71 |

| Variant | polymerase ribozyme fitness (log ratio) |
| --- | --- |
| G17A G71C | -3.64 |
| A16U A41G G44A G117C | -4.44 |
| A16U U81G | -5.13 |
| A16U U81A | -2.6 |
| G17C C73A U125A | -5.15 |
| G17A G61U C104U A111G | -2.95 |
| G17U G60U U81A | -3.3 |
| A16U G42A | -3.84 |
| G17A C56G | -3.4 |
| A16U G61C U130G | -2.75 |
| G17C C104A | -6.53 |
| A16U G17A C49U G57U A90U | -5.5 |
| A16U G69U C80G A90C | -6.49 |
| G17A C123A | -3.08 |
| A16G U21C G48A A100C C123A | -4.34 |
| A16C U112G | -2.88 |
| G17U A37U G60A | -2.43 |
| G17A C72G U96A | -4.81 |
| G17A C70U G120U | -2.58 |
| A16U G17C C73U | -3.41 |
| A16U A75G A83U A100U G110A | -4.47 |
| G17A U132A | -2.35 |
| G17A A83G | -3.95 |
| A16G G63U | -1.65 |

| Variant | polymerase ribozyme fitness (log ratio) |
| --- | --- |
| G17C A26C A29G C62A G63U | -5.05 |
| A16G G61A | -1.13 |
| G17A G44U C49U U55G | -4.05 |
| G17A U59C G69U G120U | -2.26 |
| A16G A27U | -4.63 |
| G17U C101U | -2.53 |
| G17U C40G C99G A111U | -6.82 |
| G17C C123A | -2.92 |
| A16U G58A C62A | -3.9 |
| G17U A26G G71A C94A U112C C115A | -2.54 |
| G17U C40G C89G | -6.24 |
| A16U C20A C62U A83C G120A | -6.31 |
| A16U U32A A46U A66C A103C A111G | -7.56 |
| G17A U78C C94U | -3.74 |
| G17A A84C U87A U96G | -4.16 |
| A16G G93A | -2.61 |
| G17U C22G U33G G61A C115A | -4.69 |
| A16U G69U C89U | -1.47 |
| A16G G77A A111G G113A A118G | -3.63 |
| A16U G117U C123A | -4.24 |
| G17A C115U U116C | -6.73 |
| A16G C97G U116C | -2.75 |
| G17A G25A G51C C53G A111C | -6.66 |
| A16U G61A | -0.972 |

| Variant | polymerase ribozyme fitness (log ratio) |
| --- | --- |
| G17A U55A C72A | -3.74 |
| A16U C40U C73G | -2.11 |
| G17A A91C C124A U132A | -0.557 |
| G17U G44A C62U A83U G117A | -5.24 |
| G17U A27U G61U | -6.16 |
| A16G G36U G69C A121U | -1.25 |
| G17A U129A | -4.6 |
| G17C C56G U96A | -5.36 |
| G17C G69U C79G | -4.17 |
| A16U C64A C89A A111G U130G | -5.81 |
| G17A G39U | -3.39 |
| G17U A37U G47U | -5.29 |
| G17C G57A C124U | -5.29 |
| A16G C70U C82G | -2.05 |
| G17A A18C C22U G35A C70A C79G A90G C99A C124G | -5.86 |
| G17U A43U | -3.34 |
| A16U G47U G52A | -4.24 |
| G17U C114G U132A | -5.35 |
| G17A | -2.59 |
| G17U | -2.29 |
| G17C | -3.67 |
| A16C U132A | -2.47 |
| A16G C72G U129G | -2.89 |
| G17A U55A C72A A84G | -5.99 |

| Variant | polymerase ribozyme fitness (log ratio) |
| --- | --- |
| G17C C20G G47C C72U G113A A119C | -7.02 |
| A16U G61C G117C C124G | -4.49 |
| A16U C53A A66C | -2.72 |
| A16G G48C G60A | -1.87 |
| G17C G25U G47C G120A G127A | -7.42 |
| A16G C34A | -3.22 |
| G17A C73A G120C G135A | -1.5 |
| A16G A29U C40A G61U | -4.63 |
| G17A U55C G61U G113A U130C | -5.74 |
| G17A A41C A43U G44C | -5.92 |
| A16U C89G U130C | -2.31 |
| G17A G23A C64A C102G U109A | -6.59 |
| G17A A90C A95G C104U A119U | -3 |
| G17U G120C | -1.09 |
| A16U G61U G135U | -1.98 |
| G17U A29G U55A | -4.06 |
| A16U G69U G77A U116A | -1.32 |
| G17C C28U C85A G110A G120C | -2.19 |
| A16U A95C | -2.59 |
| A16U U55C | -2.11 |
| A16U A18C G52A U96C U112A | -4.51 |
| A16G A50U C53A G63U A100C C114G A121C | -7.46 |
| A16U C40A U54C G60A | -2.69 |
| G17A G39A C79U G110C | -7.24 |

| Variant | polymerase ribozyme fitness (log ratio) |
| --- | --- |
| G17C U106A | -4.68 |
| A16U G52C G71U G117C A118G U126A | -6.61 |
| A16U G47U G52U C115U G117C | -5.71 |
| G17C G60A | -4.31 |
| G17C G60C | -4.24 |
| G17A G77A | -3.49 |
| A16G A41U C72U U106C G120C | -1.7 |
| G17C A18C A43U C89U | -2.92 |
| G17C G42U C94U U106A | -5.2 |
| G17A C70A | -4.58 |
| A16G C40U A43U C72G | -3.42 |
| G17A G69U | -1.14 |
| A16U C89G C123G | -1.67 |
| G17C A84U | -4.87 |
| A16U C22U C124A | -2.87 |
| G17A A74U | -4.06 |
| G17A U78A G117A | -2.6 |
| G17U G45C C62U | -4.56 |
| A16U A83U U112G C115A | -4.6 |
| A16G U116C | 1.6 |
| G17U G71A A84U U96G G128U U130C | -5.57 |
| G17C U21G G60C C79U G117A C124G | -5.63 |
| A16U G71U U106G A111U | -5.64 |
| G17C C28A G63A G120C C123G | -6.85 |

| Variant | polymerase ribozyme fitness (log ratio) |
| --- | --- |
| A16G G51C | -5.21 |
| G17U C49A C56A | -4.3 |
| A16G C62A C97U | -3.6 |
| A16G G60A | -1.26 |
| A16G G39A C115A | -2.22 |
| G17U A84U | -2.44 |
| A16U A37U C56G | -3.71 |
| G17A G48A A95C U112A C114A | -6.73 |
| A16G G39U C53G | -2.41 |
| A16G C72G | -1.66 |
| A16U C72G C104U | -1.7 |
| A16G G71U | -0.398 |
| G17A G36C | -3.9 |
| G17A G93A A121C | -1.03 |
| A16U U59A | 0.971 |
| A16U U59G | -1.3 |
| G17C C22G G61U | -6.24 |
| A16U G45A A90G U96A U112G A118C | -3.03 |
| G17U G71U U81C C89G A119G G128A | -4.58 |
| G17U G52C G77U C123U | -2.34 |
| A16U C56G G63U C101U | -4.93 |
| G17C A29U | -6.04 |
| G17C A29G | -4.75 |
